The chains are these.
B1: PsFcγRIIa (recombinant soluble human FcγRIIa protein produced in baculovirus-infected Sf-21 cells) (receptor)
chain: APPKAVLKLEPPWINVLQEDSVTLTCQGARSPESDSIQWFHNGNLIPTHTQPSYRFKANNNDSGEYTCQTGQTSLSDPVHLTVLFEWLVLQTPHLEFQEGETIMLRCHSWKDKPLVKVTFFQNGKSQKFSHLDPTFSIPQANHSHSGDYHCTGNIGYTLFSSKPVTITVQV
notes: Amplified from FcγRIIa LR cDNA; also called PsFc.RIIa; soluble FcγRIIa

For assay [1], the target named is B1. As to the kind of experiment: SPR; FcγRIIa (50 µg/mL) premixed with a range of hexapeptide concentrations, passed over immobilised IgG3; against no peptide. As to the method:
(§1) At the conclusion of the concentration dependence measurements all surfaces were regenerated using 50 mM diethylamine (pH 11.5), 1 M NaCl. The total response measured for each concentration of peptide was determined and plotted against the peptide concentration. The non-specific binding responses (IgE channel) were subtracted from binding to IgG1 or IgG3.
(Surface plasmon resonance follows binding to a sensor surface in real time, without labels.)

For assay [2], the target named is B1. As to the kind of experiment: SPR; FcγRIIa (50 µg/mL) premixed with a range of hexapeptide concentrations, passed over immobilised IgG1; against no peptide. As to the method:
as §1

The target in assay [3] is T1, monomeric human IgG1 (human).
T1 construct: Immobilised by amine coupling on a CM5 chip
As to the kind of experiment: SPR equilibrium, two site fit, immobilised IgG1; remaining 10% of the sites. As to the method:
(§2) About 4000 to about 6000 response units (RU) of monomeric human immunoglobulin subclasses IgG1, IgG2, IgG3, and IgE (50 ug/ml of each) were covalently coupled to separate carboxymethylated dextran surface of each CM5 sensor-chips (available from BIAcore, Uppsala, Sweden) using a amine coupling kit (available from BIAcore), according to manufacturer's methods. […] Following administration of the protein, the immunoglobulin surface was regenerated on each chip using a buffer containing 50 mM diethylamine pH 11.5, and 1 M NaCl. […] Data points obtained from the IgE channels were subtracted to correct for refractive index differences.

The target of assay [4] is T2, monomeric human IgG3 (human, UniProt P01860-1 1-377).
T2 construct: Immobilised by amine coupling on a CM5 chip
As to the kind of experiment: SPR equilibrium, two site fit, immobilised IgG3; remaining 50% of the sites. As to the method:
as §2

Assay [5] concerns the target T2, monomeric human IgG3. As to the kind of experiment: SPR equilibrium, two site fit, immobilised IgG3; 50% of the sites. As to the method:
as §2

Assay [6] addresses T1, monomeric human IgG1. As to the kind of experiment: SPR equilibrium, two site fit, immobilised IgG1; about 90% of the sites. As to the method:
as §2

The record followed here is patent US20060057144A1 (published 2006).

T2 sequence (P01860 other isoform, or with tags, fused parts or gaps): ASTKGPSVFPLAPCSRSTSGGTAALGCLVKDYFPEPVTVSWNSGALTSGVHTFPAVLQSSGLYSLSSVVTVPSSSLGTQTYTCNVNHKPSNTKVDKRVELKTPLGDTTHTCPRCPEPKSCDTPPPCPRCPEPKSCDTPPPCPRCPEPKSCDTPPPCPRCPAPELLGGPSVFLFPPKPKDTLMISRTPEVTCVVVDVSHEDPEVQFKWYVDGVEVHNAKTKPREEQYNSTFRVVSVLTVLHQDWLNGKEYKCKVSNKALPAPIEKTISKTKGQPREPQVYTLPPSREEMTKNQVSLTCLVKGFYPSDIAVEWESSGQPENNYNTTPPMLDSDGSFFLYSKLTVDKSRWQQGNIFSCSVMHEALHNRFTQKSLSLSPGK

Ac-FQNGKS-NH2 [acetylated hexapeptide of sequence FQNGKS (Ac-Phe-Gln-Asn-Gly-Lys-Ser-NH2)]: the “fold enhancement of FcγRIIa binding to IgG3” value in assay [1] was found to be 1.6 fold. Moreover, the “fold enhancement of FcγRIIa binding to IgG1” value in assay [2] was determined as 4 fold.

Take B1: the Ka with monomeric human IgG1 [3] was around 23000 M⁻¹; with monomeric human IgG3 [4] it was around 12000 M⁻¹; with monomeric human IgG3 [5], around 2.7e+06 M⁻¹; with monomeric human IgG1 [6], around 2.1e+06 M⁻¹.
